The record followed here is the DeepSol protein solubility set.

This data set can be described thus: soluble on expression in E. coli; label from the status in PepcDB or PDB records.
On to “MGSDKIHHHHHHMLAIEESQKLTLSNLPSLSLFTGTDQGQFEVMKSQMLKQIGYDSADLNFAYFDMKEVVYKDVELELVSLPFFADEKIVILDYFMDITTAKKRFLTDDELKSFEEYLDNPSPTTKLIIFAEGKLDSKRRLVKLLKRDAKAFDAVEVKEQELRQYFQKWSQKQGLQFTNHSFENLLIKSGFQFSEIQKNLLFLQSYKANSVIEEEDIVNAIPKTLQDNIFDLTQFILTKKMDQARDLVRDLTLQGEDEIKLIAVMLGQFRTFTQVKILAESGQTESQIASSLGSYLGRNPNPYQIKFALRDSRGLSLSFLKQAISYLIETDYQIKTGLYEKGFLFEKALLQIASQVN”, for which the “soluble on expression in E. coli” value is “not soluble”.

In the case of “MGSDKIHHHHHHMLERAVTYKNNGQINIILNGQKQVLTNAEAEAEYQATLQKNEAKHGILKEIEKEMSALVGMEEMKRNIKEIYAWIFVNQKRAEQGLKVGKQALHMMFKGNPGTGKTTVARLIGKLFFEMNVLSKGHLIEAERADLVGEYIGHTAQKTRDLIKKSLGGIWFIDEAYSLARGGEKDFGKEAIDTLVKHMEDKQHEFILILAGYSREMDHFLSLNPGLQSRFPISIDFPDYSVTQLMEIAKRMIDEREYQLSQEAEWKLKDYLMTVKSTTSPIKFSNGRFVRNVIEKSIRAQAMRLLMGDQYLKSDLMTIKSQDLSIKEEASGSA”, the “soluble on expression in E. coli” value is “not soluble”. Turning to “MGSDKIHHHHHHMLESNPPKSLYRETAGGIGDYCALAGAQRARVAIVGGGFTGLSTALHLAEAGDDVAVLEAQQPGWGASGRNGGQVNPGLKYDPDTIEAMFGPELGPRMIDFSYGAPDFTFGLIKRLSIACDARQNGTIRAAIRPKPQAAVRTTAAQCQRRGMPVSMVDAQAMATRTGTGRYIAGMFDARGGDLHPLKYTIGLAAAARNASARIFGGSEVLSLKREAGRWVLKTANGSVSAEKVLVATNGYTGALWPGLEQSLVPVFSAIAATEPLAPAAAAQILPDRPVLYEAGNITVYYRIDAQNRLLMGGRGPMKPIGDASAIRYLTDYALRLWPALAGVRWTHGWNGRVAITKDHLLHIHEPEDGVLICLGYNGRGVAMASAMGAALAQRLQGRETSPFPMPISPLKPIRFHRFWPLGVKAAILSGRLKDRFGL”, the “soluble on expression in E. coli” value was “not soluble”.

For the sequence “MGSDKIHHHHHHMLHPIILAGGVTQTSEWSTGVCHLALETAPGVPSRFEGVLDAMSGDVFADPVVVTTRDNMSLVERQIAARPAALIVEPETHKPAAALLSAVLSLRHMPGALVVVAPATANLADTRNLDKALCNAIPAAQRGEIVMFGQRTTRAYGGFGIMEVVTQPHENAPVAVSRVLASGRKVTLSHLLHGNHQLWGTGLYLARVDVLLAAFKSHASRLFLPVKNALLRAGTVDRTTLLDRATYRRVKAITFEKAVAEKIENICAIQLDPTWSALEEWDQDAAADSAVAQWDEDLAQERAGVLNARAAAPFPHSADMMAVYASLSKISAEDALSAHATEYDWGRLESLAMGPGFTLQRMSIAPGATLDLNAAPGGAEHWIVAQGSVLITIGDHVRLVWEGHSARIPAGRSRRIENPGSGTLVLVQLQVMPLSATGQPQSAASFSPAGVA”, the “soluble on expression in E. coli” value was “not soluble”. In the case of “MGSDKIHHHHHHMLIKTVLNKFERFKSFIYGDCRLAKVGGSEALVIDIKARRNSKPECPECGKRGKTYDTQPARLFEYVPIWAFKVFFRYAPRRVLCPIHGVKVESLPWGYGKEQMTISYQVYLARWARRLSWKEVAEIFKTSWDSIFRAVQYAVDYGLANRNLDGVTEIGVDEIAVFKGHQYLTMVYQLNAGVRRLLWCGPQRRIRTLLRFFREFGKERSAKLKYVCSDMWAPYLKVIAKRAPNAVNILDRFHIMRKFNEAIDEVRRTEAKEFKAAKQENVLEKGRWLLLKRPENLSEKQTSRLGDLLKLNLSSIKAYLLREDFQQFWDYQRSDFAGKFLDDWVIRTMQTDLEPMKKVARMLRNHKPMILNWFKAKGRLSSGAVEGLNLKAKLTIRKAYGFRTIKCLQVALYHTLGDLPEPLCHHRFC” it was “not soluble”; in that of “MGSDKIHHHHHHMLIVREFSNRFQQMSGMPINSNETKERLKAAGIDINSKQYRAVMSEMSRDGGGGYTTISAIKKRMSRYDKDGDWINPRTGLAGLLVTDKNCASKNRIVSISESIMDEMFESTKKEFFMENGVHNGDTTNRSEIYQKLYQQTEKNDRLAAGYTLEEYERQYWQAFTDAVKVADPKWEAGKPIMPGVLDRITSKSIDALLVKSGSQLIRKSFERMI”, “not soluble”.

Turning to “MGSDKIHHHHHHMLIYHYTTVDTFLKILDSKAIWASDLSKMNDPQEFTIGIELIKKFYQKKFPDLLHWFENDRFVGLDNEQLLLGCSFSENPDDLSQWRAYGDDGKGVVIGINRRILSASNTLTIPAFYKKDERTASFVHFHKVIYDKQEFENSVKELLDNIGDFINDTVESFKLSIGLSRLACSFKSDFYKTEQEIRAILEHSKRSDIYLDESLKKHKLFDVKFRLSQFGLVPYCKVNLSNADASSIQTVKLGPKCNISKKDLEFMLLATGNKDILVSTSAGQYR”, the “soluble on expression in E. coli” value is “not soluble”. In the case of “MGSDKIHHHHHHMLKIYVVDNGGQWTHREWRVLRELGVDTKIVPNDIDSSELDGLDGLVLSGGAPNIDEELDKLGSVGKYIDDHNYPILGICVGAQFIALHFGASVVKAKHPEFGKTKVSVMHSENIFGGLPSEITVWENHNDEIINLPDDFTLAASSATCQVQGFYHKTRPIYATQFHPEVEHTQYGRDIFRNFIGICASYREIQKENFQH” it was “soluble”.

With “MGSDKIHHHHHHMLKQLYLTVLRWRPYKHKKVKIVYIMSFPRNDGHLIEQLEQHYHGMIIVLYTKNCQSYAASLNQKGIKTILFDKKTLLITTAISYLKSAPLIFVDNYFPELAILKKKQVVIQLWHANGALKQFGWGAYHTKHRSSKDQIRFQKVYDKMNYFIVNSLKMEAIFRNNYRLENAQFCHFGSPRLAYLEKLEVGETNQNNKVLYAPTYREGMNEMMLVINQAIKAFSAMPNFHFYMKLHPSIQLDAIELPRNVSIWEKHIFESFSEIGYLITDYSSVVFEYMHVKEQPNILFFCPDLEKYALNPGIEPDFFEYLPGPLVENEKQLIVALSNFSINSYKDNITRINEEWNQYQSKETINKIVELVERILGGFCEK”, the “soluble on expression in E. coli” value is “not soluble”. For the sequence “MGSDKIHHHHHHMLKVDPTSPELSILLANPRGFCAGVDRAISIVERALELFEPPIYVRHEVVHNRYVVENLKQRGALFIDELDQVPDNSIVIFSAHGVSQAVRKEAKNRGLKVFDATCPLVTKVHLQVTRASRKGIECILIGHEGHPEVEGTMGQYDNPKGGVYLIESPEDVNNLQVNNPDNLCFVTQTTLSVDDTLDIITALQKRFPSIEGPRKDDICYATQNRQDAVRSMSSEVDLLIVVGSKNSSNSNRLRELAEKTGTQSYLVDTAADVEAMWFDGVKKVAVTAGASAPEVLVQQVVNAIAKLAPSIITEVEGRKEDTVFAVPAELR”, the “soluble on expression in E. coli” value is listed as “not soluble”.

In the case of “MGSDKIHHHHHHMLNFTVGPVMSSEEVRAIGAEQVPYFRTTEFSSTMLENEKFMLEYAKAPEGSKAVFMTCSSTGSMEAVVMNCFTKKDKVLVIDGGSFGHRFVQLCEIHEIPYVALKLEHGKKLTKEKLYEYDNQNFTGLLVNVDETSTAVLYDTMMIGEFCKKNNMFFVCDCVSAFLADPFNMNECGADVMITGSQKVLACPPGISVIVLAPRGVERVEKSKVRTMYFDLKDALKNQERGQTPFTPAVGILLQINERLKEIKKHGGADAEVARIASQAADFRAKIKDLPFELVSESPANGVTSVHPTTANAYDIFLKLKDEYGIWICPNGGEMKDTIFRVGHIGALTHEDNTTLVNAFKDLQKRNLL”, the “soluble on expression in E. coli” value is “not soluble”. Then “MGSDKIHHHHHHMLNWLRTLLGRVRADPDTIPETLWQHTLAQYPFLAQRAAAEQSQLRTLAGQFLAGKEFSGAQGLVVTDEMAVAIAAQACLPVLHLGLDYYDDFKGIVVHPGAMLARREVMDDSGVVHRYSEVLLGEAMERGPVTLSWQDVAAAGESASQGYNVVVHEFIHKIDMRDGTANGCPPLPSRTAREAWQAVMQPAYDDFREQVAMAERFGGAPPWLDSYAATSPAEFFAVTCEAYFVNRPRFAQDFAALAGLFDEYFRRNRLSTQ”, with “not soluble”; and “MGSDKIHHHHHHMLPQGVKDQKYDQNENIPVSWNCEESDQNHNKQKRNGSPAEGKAQKGGKETQNVLEDVVPEDAEKGKNIDHSTTPMTITLSGTSRVTFSRKYSSSRPATVPMNRYSLKATFHFSLSKYTFQPVTSMSSITESLGTRSPLTTPTTDSRSFSTLTFSTKSSENTLITFEIGPFSTTIPRNLFSSGSRTMAPSSASPRM”, with “not soluble”.
